Target: NTAP-tagged TRAPPC8
Assay: co-IP (IP: anti-Myc, immunoblot)
Conditions: 0.5% input, parent: 1

Substance | ratio to parent
Mouse OFD1, wild type (from UniProt Q80Z25) S75F | 0.7
Mouse OFD1, wild type (from UniProt Q80Z25) A80T | 1.04
Mouse OFD1, wild type (from UniProt Q80Z25) S437R | 1.02
Mouse OFD1, wild type (from UniProt Q80Z25) G139S | 1

Source: paper PMC7090148 (2020)
